± gives the uncertainty stated by the source.
Test: amyloid nucleation score (Sup35N fusion, yeast selection) (log enrichment); library NNK2; higher = more nucleation; inactive = no reads after selection
In short: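 The nucleation score is the log enrichment of output over input reads, calculated with DiMSum and centred on the mode score of non-aggregating sequences. Sequences with under 100 input reads were excluded. Reads came from Illumina sequencing of plasmid inserts from psi-negative yeast expressing Sup35N fused to peptides of 20 random codons, induced 24 hours with 100 μM copper sulfate and grown 7 days at 30°C without adenine and uracil.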

Question: Which amyloid nucleation score does the source give for LYIET here?
Answer: -1.28 ± 0.63

Question: Which amyloid nucleation score does the source give for NQRVLLLLKSVLYMMVAK here?
Answer: inactive

Question: Which amyloid nucleation score does the source give for TSQLSFYKHSLVY here?
Answer: inactive

Question: Which amyloid nucleation score does the source give for IPNSGRGWSPAWPKMALTYS here?
Answer: 0.746 ± 0.24

Question: For LSMEVRGMVATMVVTWNFVS, which amyloid nucleation score is on record?
Answer: 0.07 ± 0.32

Question: Which amyloid nucleation score does the source give for LTLCSFRCTKLMR here?
Answer: 1.11 ± 0.25

Question: Which amyloid nucleation score does the source give for WWSKEREYWSLPVGWFMEAV here?
Answer: 0.085 ± 0.45

Question: Which amyloid nucleation score does the source give for VNIWAVNICC here?
Answer: 7.8 ± 0.048

Question: With VCRHFVRVKDQMDRTFNDKQ as the substance, how does the amyloid nucleation score read?
Answer: 0.18 ± 0.28

Question: With VRWTTFRECWAGYGGYVIGR as the substance, how does the amyloid nucleation score read?
Answer: 1.19 ± 0.17

Question: For GVGGRVWTC, which amyloid nucleation score is on record?
Answer: -0.998 ± 0.76

Question: Which amyloid nucleation score does the source give for CRMYRSRCNCMCDRVVEMWG here?
Answer: -0.407 ± 0.4

Question: Which amyloid nucleation score does the source give for TFTFDGRSSNFG here?
Answer: -0.343 ± 0.55

Question: For LYGGCRKWFTRTCFSFHMYR, which amyloid nucleation score is on record?
Answer: 0.562 ± 0.81

Question: Which amyloid nucleation score does the source give for CSVRSSAIYIRSCHHGWFYC here?
Answer: -1.19 ± 1.1

Question: With NVHDSLFWQFVIVNYTIGLS as the substance, how does the amyloid nucleation score read?
Answer: 3.38 ± 0.042

Question: With YSGWVSDS as the substance, how does the amyloid nucleation score read?
Answer: inactive

Question: For KAGESWTEGDSAVWGFLRLE, which amyloid nucleation score is on record?
Answer: 0.942 ± 0.81

Question: Which amyloid nucleation score does the source give for EYLRPSWSH here?
Answer: -0.971 ± 0.56

Question: Which amyloid nucleation score does the source give for HNWLSMVQYH here?
Answer: -0.344 ± 0.76

Question: For YIWLDAYFTESGILYYLMIR, which amyloid nucleation score is on record?
Answer: inactive

Question: With GLSLLRGTNSGSAARLGANG as the substance, how does the amyloid nucleation score read?
Answer: 0.452 ± 0.32

Question: Which amyloid nucleation score does the source give for TLGYKFWMGRYRVNSAYGFE here?
Answer: -0.005 ± 0.61

Question: With RRKHLWRQRLWTR as the substance, how does the amyloid nucleation score read?
Answer: -0.425 ± 0.63

Question: Which amyloid nucleation score does the source give for YLGAGPSNILCHPFISAGSN here?
Answer: inactive

Question: With LFFSATKTCSWSLKECAKR as the substance, how does the amyloid nucleation score read?
Answer: -0.243 ± 1.1

Question: With YVAAGLWVMWTGALKMRQAG as the substance, how does the amyloid nucleation score read?
Answer: 0.954 ± 0.66

Question: Which amyloid nucleation score does the source give for VTNSVSHIVDCCAHSERVWV here?
Answer: 0.111 ± 0.39

Question: For IIHAFHMSGPLLRAQVS, which amyloid nucleation score is on record?
Answer: -0.308 ± 0.38

Question: With CQWSVGRLRSLRAESVVQFD as the substance, how does the amyloid nucleation score read?
Answer: 0.104 ± 0.35

Question: For RLNRSMSSHHDRRHLEWSLS, which amyloid nucleation score is on record?
Answer: 0.235 ± 0.19

Question: With SGCVA as the substance, how does the amyloid nucleation score read?
Answer: 0.474 ± 0.24

Question: For FFIGIQQWSYHWPVVGVYNK, which amyloid nucleation score is on record?
Answer: inactive

Question: With DRYHDTMAMKARVWSDRCKS as the substance, how does the amyloid nucleation score read?
Answer: 1.94 ± 0.34

Question: For TCWKDYIYIFALVNYSGHRA, which amyloid nucleation score is on record?
Answer: inactive

Question: With IWDEQCRTLCGARCNDVSAW as the substance, how does the amyloid nucleation score read?
Answer: 0.799 ± 0.3

Question: Which amyloid nucleation score does the source give for SKGRHVMGLGCEGNIWLKEL here?
Answer: -0.377 ± 0.34

Question: For CRVRVTFG, which amyloid nucleation score is on record?
Answer: -0.481 ± 1.1

Question: Which amyloid nucleation score does the source give for DLRYTMYYDCFCYVFCPSMT here?
Answer: 8.166 ± 0.059

Question: With SLMWDGANLYCMMVYSSVRN as the substance, how does the amyloid nucleation score read?
Answer: 0.182 ± 1.1

Question: With KKSRNPHGKFTWTFGFVKKL as the substance, how does the amyloid nucleation score read?
Answer: -1.76 ± 1.1

Question: Which amyloid nucleation score does the source give for FCLIHVVM here?
Answer: 1.32 ± 0.27

Question: With FLSYLN as the substance, how does the amyloid nucleation score read?
Answer: -0.322 ± 0.5

Question: With RSPMWLAGLMNIYSP as the substance, how does the amyloid nucleation score read?
Answer: 2.87 ± 0.084

Question: With YMSNPSELWKNWILVHYHFC as the substance, how does the amyloid nucleation score read?
Answer: 3.56 ± 0.076

Question: Which amyloid nucleation score does the source give for AFWVLTVPLGSWYCACYCYS here?
Answer: -0.662 ± 0.39

Question: With YHCRSEVTCWLEYDG as the substance, how does the amyloid nucleation score read?
Answer: 0.712 ± 0.28

Question: For FYSSPILM, which amyloid nucleation score is on record?
Answer: -0.927 ± 0.41

Question: With LCPLTHFFVFEVYFSDPYRE as the substance, how does the amyloid nucleation score read?
Answer: 5.69 ± 0.075

Question: With YITFSDRLWTLLLWCRILWL as the substance, how does the amyloid nucleation score read?
Answer: -0.002 ± 1

Question: With ECNSSALHNWKY as the substance, how does the amyloid nucleation score read?
Answer: 0.088 ± 0.54

Question: For WSNFVIMNVPANGAWNFRIR, which amyloid nucleation score is on record?
Answer: -1.13 ± 0.76

Question: For FALLPCDKVCLGVREWFNFG, which amyloid nucleation score is on record?
Answer: inactive

Question: For FPGLDGNQMFRLC, which amyloid nucleation score is on record?
Answer: 0.42 ± 0.66

Question: With SSLFYERRIQLCVFI as the substance, how does the amyloid nucleation score read?
Answer: 3.63 ± 0.077

Question: With DYKDYNLCGITHMESF as the substance, how does the amyloid nucleation score read?
Answer: -0.442 ± 1

Question: Which amyloid nucleation score does the source give for GYKDANQNM here?
Answer: inactive

Question: Which amyloid nucleation score does the source give for DMWMRVILSDNGNQEVPK here?
Answer: -0.293 ± 0.27

Question: Which amyloid nucleation score does the source give for GIQVNYRWLGFGVGKRKARL here?
Answer: 5.547 ± 0.043

Question: Which amyloid nucleation score does the source give for TRMHESIWV here?
Answer: 1.73 ± 0.077

Question: With TTDSGAVYSGLPE as the substance, how does the amyloid nucleation score read?
Answer: 0.542 ± 0.19

Question: With LTEDTMFG as the substance, how does the amyloid nucleation score read?
Answer: -0.573 ± 0.76

Question: Which amyloid nucleation score does the source give for NKLTVPYTVDVNDTILDRGK here?
Answer: -0.015 ± 0.46

Question: Which amyloid nucleation score does the source give for RIHFGFRMMMCRDIRIFTSQ here?
Answer: 6.06 ± 0.064

Question: With HCLFSGYYLKLN as the substance, how does the amyloid nucleation score read?
Answer: inactive

Question: Which amyloid nucleation score does the source give for FGLTRPEKWEHLHVYCNYMS here?
Answer: 0.615 ± 0.38

Question: With NSPMSKSLNRT as the substance, how does the amyloid nucleation score read?
Answer: 0.347 ± 0.22

Question: With TGTFRIAWM as the substance, how does the amyloid nucleation score read?
Answer: 6.64 ± 0.063

Question: Which amyloid nucleation score does the source give for SLEKMWCRLFKGSQT here?
Answer: 1.11 ± 0.12

Question: Which amyloid nucleation score does the source give for DITYQHDGVIE here?
Answer: -0.789 ± 0.32

Question: For TYAYYH, which amyloid nucleation score is on record?
Answer: 5.61 ± 0.061

— the supplement of paper PMC12042874
